From PMC8121781, “Molecular basis for the disruption of Keap1–Nrf2 interaction via Hinge & Latch mechanism” (Communications Biology, 2021)
Square brackets hold non-standard residues; d marks the D form. Ends that are not written are not given here. pS = N[C@@H](COP(=O)(O)O)C(=O)O

Biological target: T1, full-length mouse wild-type Keap1-6xHis (Kelch-like ECH-associated protein 1) (mouse, UniProt Q9Z2X8 1-624)
T1 construct: Keap1, mouse, full-length protein Met1-Cys624; also called full-length Keap1; Keap1 homodimer; not shown: 6xHis, C-terminal, kept
Assay: NMR titration; competition: preformed complex of 0.05 mM 13C/15N-Neh2 and 0.1 mM Keap1 (1:2) titrated with p62-KIR peptide (phosphorylated 0.25-5 mM, non-phosphorylated 1.0 and 5 mM); 20 mM Tris-HCl pH 8.0, 100 mM NaCl, 4 mM TCEP; read-out is recovery of Neh2 signals
Conditions: both partners purified

T1 sequence (Q9Z2X8 whole entry): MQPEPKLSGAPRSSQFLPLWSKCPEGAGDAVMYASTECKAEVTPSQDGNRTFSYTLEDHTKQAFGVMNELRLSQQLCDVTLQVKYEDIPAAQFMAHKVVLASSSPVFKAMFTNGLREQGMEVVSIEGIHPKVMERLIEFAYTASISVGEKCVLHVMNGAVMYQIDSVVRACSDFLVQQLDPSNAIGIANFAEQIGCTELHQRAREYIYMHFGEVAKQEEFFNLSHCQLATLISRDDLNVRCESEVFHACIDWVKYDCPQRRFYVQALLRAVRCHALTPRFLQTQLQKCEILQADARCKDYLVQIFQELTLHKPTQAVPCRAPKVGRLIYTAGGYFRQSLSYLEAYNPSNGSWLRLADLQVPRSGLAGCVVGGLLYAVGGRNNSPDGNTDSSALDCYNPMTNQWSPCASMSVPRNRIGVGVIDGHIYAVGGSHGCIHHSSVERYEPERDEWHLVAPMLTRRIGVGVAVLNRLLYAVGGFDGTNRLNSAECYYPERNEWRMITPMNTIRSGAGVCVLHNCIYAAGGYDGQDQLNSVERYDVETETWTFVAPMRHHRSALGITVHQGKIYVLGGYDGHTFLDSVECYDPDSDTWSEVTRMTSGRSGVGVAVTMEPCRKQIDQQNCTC

B1: phosphorylated p62-KIR peptide (peptide)
peptide: KEVDP[pS]TGELQSLQ
notes: also called P-p62-KIR; p62-pKIR peptide; source: bought: Toray Research Center
B1: binds.
